{
  "source": "patent EP4786489A1",
  "about": "“IL-22 MUTANT, PREPARATION METHOD THEREFOR, AND USE THEREOF” (Nanjing Novoacine Biotechnology Co., Ltd., priority 2023, dated 2025)",
  "key": {"STAT3": {"test_system": "STAT3", "assay": "STAT3 phosphorylation in HaCaT cells by FACS (tissue activation preference)", "assay_type": "cell-based, Human", "details": "STAT3 activation in HT29 vs HaCaT cells", "experimental": "Human immortalized keratinocyte HaCaT cells were recovered and cultured in MEM/EBSS medium (Cytiva, SH30024.01) supplemented with 15% FBS and 1% P/S (Cytiva, SV30010). When cell confluence reached 70%-80%, cells were digested with 0.25% Trypsin-EDTA (Gibco, 25200-056), terminated with complete medium, and resuspended to […]. After mixed thoroughly, a total of 120 µL per well cells was seeded into a 96-well plate (Corning, 3599) at a density of 1.5 × 10^5 cells per well and incubated overnight at 37°C with 5% CO2.\nwt IL-22 was prepared at an initial working concentration of 1000 nM, and the remaining samples were prepared at 10000 nM as the starting concentration. […] After staining at room temperature in the dark for 1 hour, cells were washed twice with 1× PBS and analyzed by flow cytometry to determine the mean fluorescence intensity (MFI).\nTissue activation preference of different test candidates was evaluated by comparing their ability to activate STAT3 in intestinal-derived HT29 cells and skin-derived HaCaT cells. […] The activity of PEGylated IL-22 mutants in activating STAT3 phosphorylation in HaCaT cells at different concentrations as determined by FACS is shown in Figure 8. […] Tissue preference of PEG-IL22 mutants for STAT3 phosphorylation in human intestinal and human skin cell lines determined by FACS"}, "SAA": {"test_system": "SAA", "assay": "Mouse PD preference study: plasma SAA", "assay_type": "in vivo, mice", "details": "at equivalent or superior Reg3β Cmax: 60K-PEG-IL22-D109C 0.1 mg/kg vs 60K-PEG-IL22-P120C 0.3 mg/kg vs IL-22-Fc 1 mg/kg, s.c.", "experimental": "Based on the in vitro preference results and preliminary PD screening results, the molecules 60k-PEG-IL22-D109C and 60k-PEG-IL22-P120C were selected. PD testing was performed in three mice per dose group at different dose levels according to the method described in Example 14, including the pharmacodynamic-related molecule Reg3β and the inflammation-related molecule SAA. The control was IL-22-Fc. Blood samples were collected before dosing and at 4, 24, 48, 72, 96, 144, 192, 264, and 336 hours after dosing. Plasma was separated using anticoagulated blood samples. For the control molecules wt IL-22 and hB3-his, samples were collected only up to 96 hours.\nThe detection method for SAA was as follows: a kit containing detecting antibody pairs and positive controls (Abcam, Ab216059) was used to detect SAA concentrations in appropriately diluted plasma samples. The assay was performed according to the manufacturer's instructions. Sa-HRP (Pierce 21126) was used for conjugation. After washing, tetramethylbenzidine peroxidase substrate (TMB, Surmodics, TMBS-1000-01) was added for color development for 10 minutes. The reaction was terminated with 2 M sulfuric acid, and the plate was read at 450 nm with 630 nm as the reference using a microplate reader. SAA was measured before dosing and at 24, 48, 72, 96, and 144 hours after dosing. The original SAA concentration in each sample was calculated. […]"}, "[1]": {"assay": "Mouse PK, plasma concentration by ELISA", "assay_type": "in vivo", "details": "single s.c. 1 mg/kg, male Balb/C mice", "experimental": "Male Balb/C mice (n = 4 per group) were administered a single subcutaneous injection at a dose of 1 mg/kg. Blood samples were collected before dosing and at 4 (no samples were collected at this time point for 60k-PEG-IL22-D109C and 60k-PEG-IL22-P120C), 8, 24, […], 48, 72, 96, and 120 hours after dosing. Anticoagulated blood was used to prepare plasma.\nThe concentrations of each test candidate in plasma were quantified by ELISA. Anti-IL22 Antibody (Sino Biological, 13059-MM24), diluted in PBS to 2 µg/mL, was used for coating. Standard curves of each test candidate and plasma samples were diluted to fall within the linear range of detection. Recombinant Anti-IL22 Antibody (Sino Biological, 13059-R034-H) was used for detection. The original concentration of each test candidate in the samples was calculated using a four-parameter fit of the standard curve for each test candidate. Pharmacokinetic parameters of each test candidate in mouse plasma were analyzed (Figure 12). Table 13. Dosing information for the mouse PK study"}},
  "data": [
    {"molecule": "60K-PEG-IL22-P120C: IL-22 cysteine mutant, conjugation site 87, PEG-maleimide 60kD (conjugate) APISSHCRLDKSNFQQPYITNRTFMLAKEASLADNNTDVRLIGEKLFHGVSMSERCYLMKQVLNFTLEEVLFPQSDRFQPYMQEVVCFLARLSNRLSTCHIEGDDLHIQRNVQKLKDTVKKLGESGEIKAIGELDLLFMSLRNACI", "values": [
      {"measurement": "tissue preference compared with IL-22-Fc", "setting": "STAT3", "result": "superior tissue preference"},
      {"measurement": "SAA Cmax compared with IL-22-Fc", "setting": "SAA", "result": "significantly lower"},
      {"measurement": "AUClast", "setting": "[1]", "result": 105.2029, "unit": "µg·h/mL"},
      {"measurement": "Cmax", "setting": "[1]", "result": 4184.95, "unit": "ng/mL"},
      {"measurement": "MRT", "setting": "[1]", "result": 20.17, "unit": "h"},
      {"measurement": "T1/2", "setting": "[1]", "result": 11.62, "unit": "h"}
    ]}
  ]
}
